Broadly, the Kd is a measure of binding affinity in units of concentration. Broadly, the koff is the first-order rate constant of dissociation. The kon is a measure of how fast the partners come together.

Positions count from the first letter of the chain named. Some results are limits rather than exact numbers.

Consider 14 molecules from patent US20170152311A1 (published 2017).

In assay [1] the target is T1, recombinant human M-CSF (human, UniProt P09603 33-190, limits assumed).
T1 construct: The active form is described as a disulfide bonded dimer; also called M-SCF; CSF-1
T1 sequence: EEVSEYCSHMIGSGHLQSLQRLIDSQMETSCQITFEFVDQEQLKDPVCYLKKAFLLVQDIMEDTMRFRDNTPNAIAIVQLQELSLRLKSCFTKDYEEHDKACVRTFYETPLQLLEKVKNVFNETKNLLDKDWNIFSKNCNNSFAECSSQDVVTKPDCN
Kind of assay: SPR (Biacore), antibody captured on anti-mouse Fc chip, M-CSF flowed, 25 C, 1:1 model. Here is the method:
Binding properties of the aforementioned antibodies were analyzed using Biacore analyses. […] The aforementioned antibodies were then captured on the anti-mouse Fc/CM5 biosensor chip at 1.5 μg/ml for 3 min at 2 μl/min. MCSF was flowed over the modified biosensor surface at varying concentrations (Rmax ˜15). Test antibodies and antigen were diluted in 0.01 M HEPES pH 7.4, 0.15 M NaCL, 3 mM EDTA, 0.005% Surfactant P20 (HBS-EP). All experiments were performed at 25° C. Kinetic and affinity constants were determined using Biaevaluation software (Biacore) with a 1:1 interaction model/global fit.

Assay [2] has as its target T1, recombinant human M-CSF. Kind of assay: SPR (Biacore), M-CSF amine-coupled on CM5 chip, antibody or Fab flowed, 25 C, 1:1 model. How it is done:
Specifically, M-CSF was immobilized onto CM5 biosensor chip via amine coupling. 0.05 μg/ml M-CSF in 10mM Na Acetate pH 4.0 was injected at 1 μl/min for 5 minutes to achieve RL=6-12 RU. Test antibody (or Fab fragment) were flowed over the modified biosensor surface at varying concentrations. Test antibodies were diluted in 0.01 M HEPES pH 7.4, 0.15 M NaCL, 3 mM EDTA, 0.005% Surfactant P20 (HBS-EP) and all experiments were done at 25° C. Kinetic and affinity constants were determined using Biaevaluation software (Biacore) with a 1:1 interaction model/global fit.
(In general: Surface plasmon resonance follows binding to a sensor surface in real time, without labels.)

Assay [3] deals with T1, recombinant human M-CSF. Kind of assay: cell-based or functional assay.
The target of assay [4] is T1, recombinant human M-CSF. Kind of assay: SPR (Biacore), M-CSF amine-coupled on CM5 chip, antibody flowed. Here is the method:
(§1) To determine the relative differences in the binding affinity of intact antibodies by Biacore analysis, M-CSF was immobilized onto CMS biosensor chip via amine coupling. 0.05 μg/ml M-CSF in 10 mM Na-Acetate pH 4.0 was injected at 1 μl/min for 5 minutes to achieve RL=6-12 RU. Test antibody or Fab fragments were flowed over the modified biosensor surface at varying concentrations ranging from 100 nM to 1.5 nM in 2-fold dilutions. Test antibodies were diluted in 0.01 M HEPES pH 7.4, 0.15 M NaCL, 3 mM EDTA, 0.005% Surfactant P20 (HBS-EP) and all experiments were done at 25° C. Each concentration point and buffer blanks were run in triplicate, and data was collected over 3 minutes of association and 8 minutes of dissociation. Kinetic and affinity constants were determined using Biaevaluation software with a 1:1 interaction model/global fit.

Assay [5] addresses T1, recombinant human M-CSF. Kind of assay: SPR (Biacore), M-CSF amine-coupled on CM5 chip, antibody flowed, 25 C, 1:1 model, n = 5. Here is the method: as §1
The target in assay [6] is T1, recombinant human M-CSF. Kind of assay: SPR (Biacore), M-CSF amine-coupled on CM5 chip, antibody flowed 100 nM to 1.5 nM, 25 C, 1:1 model, n = 5. Here is the method: as §1
In assay [7] the target is T1, recombinant human M-CSF. Kind of assay: SPR (Biacore), M-CSF amine-coupled on CM5 chip, antibody flowed, 25 C, 1:1 model, n = 2. How it is done:
as §1

Assay [8] deals with T1, recombinant human M-CSF. Kind of assay: SPR (Biacore), M-CSF amine-coupled on CM5 chip, antibody flowed 100 nM to 1.5 nM, 25 C, 1:1 model, n = 2. How it is done:
as §1

In assay [9] the target is T1, recombinant human M-CSF. Kind of assay: SPR (Biacore), M-CSF amine-coupled on CM5 chip, antibody flowed 100 nM to 1.5 nM, 25 C, 1:1 model. How it is done:
as §1

In assay [10] the target is T1, recombinant human M-CSF. Kind of assay: SPR (Biacore), M-CSF amine-coupled on CM5 chip, antibody flowed, 25 C, 1:1 model. How it is done: as §1

B1: murine monoclonal antibody 5H4 (antibody, mouse IgG1, kappa, V domains shown)
VH: EIQLQQSGPELVKTGTSVKISCKASGYSFTGYFMHWVKQSHGKSLEWIGYISCYNGDTNYNQNFKGKATFTVDTSSSTAYMQFNSLTSEDSAVYYCAREGGNYPAYWGQGTLVTVSA
VL: DIVMTQSHKFMSTSVGDRVTITCKASQNVGTAVTWYQQKPGQSPKLLIYWTSTRHAGVPDRFTGSGSGTDFTLTISDVQSEDLADYFCQQYSSYPLTFGAGTKLELKR
For the molecule B1, in the assay with recombinant human M-CSF [1], the Kd turned out to be 3 nM, the off-rate constant (koff) is 0.00177 s⁻¹ and the kon is 594000 M⁻¹ s⁻¹. Moreover, in the assay with recombinant human M-CSF [2], the Kd turned out to be 9.9 nM, the koff was found to be 0.00126 s⁻¹ and the kon came out at 127000 M⁻¹ s⁻¹.

B2: murine monoclonal antibody MC3 (antibody, V domains shown)
VH: DVQLQESGPGLVKPSQSLSLTCTVTGYSITSDYAWNWIRQFPGNKLEWMGYISYSGSTSYNPSLKSRISITRDTSKNQFFLQLNSVTTEDTATYYCARLETWLFDYWGQGTTLTVSS
VL: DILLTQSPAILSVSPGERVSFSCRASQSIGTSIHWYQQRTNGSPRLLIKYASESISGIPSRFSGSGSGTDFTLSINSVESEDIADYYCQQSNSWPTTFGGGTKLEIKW
notes: Hybridoma ATCC PTA-6264
Consider B2, for which, in the assay with recombinant human M-CSF [1], the Kd came out at 0.27 nM, the koff was determined as 0.000193 s⁻¹ and the kon worked out at 704000 M⁻¹ s⁻¹.

B3: heRX1-1.G2 (antibody)
heavy: DVQLQESGPGLVKPSQTLSLTCTVTDYSITSDYAWNWIRQFPGKKLEWMGYISYSGSTSYNPSLKSRITISRDTSKNQFSLQLNSVTAADTATYYCASFDYAHAMDYWGQGTTVTVSS
light: EIVLTQSPGTLSVSPGERVTFSCRASQSIGTSIHWYQQKTGQSPRLLIKYASERISGIPDRFSGSGSGTDFTLTISRVESEDFADYYCQQINSWPTTFGQGTKLEIKRT
notes: The legends may have 45 and 48 exchanged; also called heRX1-1-IgG2; heRX1-1.IgG2; not shown: human Gamma-2 heavy chain constant region; human Kappa light chain constant region (the printed V regions end in EIKRT, which may overlap its start)
As to B3, the “IC50 Fold Loss” value with recombinant human M-CSF [3] was found to be 2.8 fold. For the same molecule, in the assay with recombinant human M-CSF [4], the “fold decrease in binding affinity compared to the parent murine antibody” value (shortened to “fold decrease in binding affinity”) is not below 7 fold. Also, in the assay with recombinant human M-CSF [5], the Kd was 5.9 nM, the koff came to 0.00137 s⁻¹ and the kon came out at 236000 M⁻¹ s⁻¹. In the assay with recombinant human M-CSF [6], the equilibrium dissociation constant (Kd) turned out to be 5.9 nM, the koff was determined as 0.00137 s⁻¹ and the kon was determined as 236000 M⁻¹ s⁻¹.

B4: heRX1-10.G2 (antibody, V domains shown)
VH: B3 heavy with D1Q, T25S, K45G, T93V
VL: DIVLTQSPAFLSVTPGEKVTFTCQASQSIGTSIHWYQQKTDQAPKLLIKYASESISGIPSRFSGSGSGTDFTLTISSVEAEDAADYYCQQINSWPTTFGGGTKLEIKR
notes: not shown: human Gamma-2 heavy chain constant region; human Kappa light chain constant region (the V region entry may overlap its start)
In the case of B4, in the assay with recombinant human M-CSF [3], the “IC50 Fold Loss” value worked out at 2.2 fold. Also, the “fold decrease in binding affinity” value with recombinant human M-CSF [4] was not below 7 fold. In addition, in the assay with recombinant human M-CSF [7], the Kd worked out at 6.3 nM, the koff came out at 0.0011 s⁻¹ and the kon worked out at 173000 M⁻¹ s⁻¹. Further, in the assay with recombinant human M-CSF [8], the Kd is 6.3 nM, the koff was determined as 0.0011 s⁻¹ and the association rate constant (kon) was found to be 173000 M⁻¹ s⁻¹.

B5: heRX1-1.G1 (antibody)
heavy: not shown
light: B3 light
notes: heavy pMXC29 Low Risk (Kabat), Gamma 1; also called heRX1-1-IgG1; heRX1-1.IgG1; not shown: human Kappa light chain constant region (the printed V regions end in EIKRT, which may overlap its start)
On to B5, for which, in the assay with recombinant human M-CSF [9], the equilibrium dissociation constant (Kd) came to 0.95 nM, the koff came to 0.000238 s⁻¹ and the kon was found to be 250000 M⁻¹ s⁻¹.

B6: heRX1-1.G4 (antibody)
heavy: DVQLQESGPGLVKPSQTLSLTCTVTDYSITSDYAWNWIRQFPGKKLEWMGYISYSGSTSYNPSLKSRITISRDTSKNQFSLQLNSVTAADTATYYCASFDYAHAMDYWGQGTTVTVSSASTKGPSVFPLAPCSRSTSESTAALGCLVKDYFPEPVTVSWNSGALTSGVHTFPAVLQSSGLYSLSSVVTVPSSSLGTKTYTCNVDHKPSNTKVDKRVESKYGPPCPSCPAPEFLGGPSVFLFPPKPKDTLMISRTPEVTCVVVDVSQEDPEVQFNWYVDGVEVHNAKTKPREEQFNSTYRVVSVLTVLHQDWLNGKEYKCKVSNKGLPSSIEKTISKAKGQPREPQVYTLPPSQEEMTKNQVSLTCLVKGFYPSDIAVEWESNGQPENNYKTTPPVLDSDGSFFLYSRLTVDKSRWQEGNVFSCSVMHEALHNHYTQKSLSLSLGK
light: B3 light
notes: also called heRX1-1-IgG4; heRX1-1.IgG4; not shown: human Kappa light chain constant region (the printed V regions end in EIKRT, which may overlap its start)
For B6, in the assay with recombinant human M-CSF [9], the Kd came out at 1.42 nM, the koff was 0.000293 s⁻¹ and the kon worked out at 207000 M⁻¹ s⁻¹.

B7: heRX1-7.G2 (antibody, V domains shown)
VH: B3 heavy
VL: EIVLTQSPGTLSVSPGERVTFSCRASQSIGTSIHWYQQKTGQAPRLLIKYASESISGIPDRFSGSGSGTDFTLTISRVESEDFADYYCQQINSWPTTFGQGTKLEIK
notes: copies: 2 + 2
Take B7: the “IC50 Fold Loss” value in the assay with recombinant human M-CSF [3] amounted to 6.1 fold. Moreover, in the assay with recombinant human M-CSF [4], the “fold decrease in binding affinity” value was not below 7 fold. Moreover, in the assay with recombinant human M-CSF [10], the Kd is 9.5 nM, the koff worked out at 0.00149 s⁻¹ and the kon is 157000 M⁻¹ s⁻¹.

B8: rRX1 Fab (mouse) (Fab, V domains shown)
VH: B3 heavy with T17S, K44N, T69S, S71T, S80F, A88T, A89E, T113S
VL: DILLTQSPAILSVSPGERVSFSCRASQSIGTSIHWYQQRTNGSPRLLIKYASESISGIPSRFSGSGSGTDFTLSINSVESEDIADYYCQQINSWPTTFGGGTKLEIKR
notes: Fab fragment; also called Fab fragment of RX1
As for B8, in the assay with recombinant human M-CSF [2], the Kd amounted to 10.8 nM, the koff is 0.00303 s⁻¹ and the on-rate (kon) was found to be 281000 M⁻¹ s⁻¹.

B9: heRX1-9.G2 (antibody, V domains shown)
VH: B3 heavy
VL: B4 VL
notes: as for B4
B9: in the assay with recombinant human M-CSF [3], the “IC50 Fold Loss” value was 3.6 fold. For the same molecule, in the assay with recombinant human M-CSF [4], the “fold decrease in binding affinity” value was not below 7 fold. In the assay with recombinant human M-CSF [10], the Kd amounted to 7.2 nM, the koff came out at 0.00144 s⁻¹ and the kon came to 200000 M⁻¹ s⁻¹.

B10: heRX1-5.G2 (antibody, V domains shown)
VH: B3 heavy
VL: EIVLTQSPGTLSVSPGERVTFSCRASQSIGTSIHWYQQKTGQSPRLLIKYASESISGIPDRFSGSGSGTDFTLTISRVESEDFADYYCQQINSWPTTFGQGTKLEIKR
notes: not shown: human Gamma-2 heavy chain constant region; human Kappa light chain constant region (the printed V regions end in EIKRT, which may overlap its start)
With B10, in the assay with recombinant human M-CSF [3], the “IC50 Fold Loss” value came to 6.5 fold. For the same molecule, the “fold decrease in binding affinity” value in the assay with recombinant human M-CSF [4] was not below 7 fold. In addition, in the assay with recombinant human M-CSF [10], the Kd was 7.4 nM, the koff came out at 0.00129 s⁻¹ and the kon was 175000 M⁻¹ s⁻¹.

B11: heRX1-8.G2 (antibody, V domains shown)
VH: B3 heavy with D1Q, T25S, K45G, T93V
VL: B7 VL
notes: copies: 2 + 2
For B11, the “IC50 Fold Loss” value in the assay with recombinant human M-CSF [3] amounted to 5.9 fold. The “fold decrease in binding affinity” value in the assay with recombinant human M-CSF [4] is not below 7 fold. Moreover, in the assay with recombinant human M-CSF [10], the Kd is 9.8 nM, the koff is 0.00148 s⁻¹ and the kon worked out at 152000 M⁻¹ s⁻¹.

B12: heRX1-4.G2 (antibody, V domains shown)
VH: B3 heavy with D1Q, T25S, K45G, T93V
VL: B10 VL with S43A, S54R, I55A, S56T
notes: as for B10
As to B12, the “IC50 Fold Loss” value with recombinant human M-CSF [3] was found to be 4.6 fold. For the same molecule, the “fold decrease in binding affinity” value in the assay with recombinant human M-CSF [4] is not below 7 fold. Besides, in the assay with recombinant human M-CSF [10], the Kd amounted to 4.6 nM, the koff came out at 0.00108 s⁻¹ and the kon came to 238000 M⁻¹ s⁻¹.

B13: heRX1-2.G2 (antibody, V domains shown)
VH: B3 heavy with D1Q, T25S, K45G, T93V
VL: B10 VL with S54R
notes: as for B10
Take B13: the “IC50 Fold Loss” value with recombinant human M-CSF [3] was 3.1 fold. Further, the “fold decrease in binding affinity” value in the assay with recombinant human M-CSF [4] was not below 7 fold. Besides, in the assay with recombinant human M-CSF [10], the Kd is 7.6 nM, the koff turned out to be 0.00165 s⁻¹ and the kon worked out at 218000 M⁻¹ s⁻¹.

B14: heRX1-3.G2 (antibody, V domains shown)
VH: B3 heavy
VL: B10 VL with S43A, S54R, I55A, S56T
notes: as for B10
Consider B14, for which the “IC50 Fold Loss” value with recombinant human M-CSF [3] is 5.3 fold. For the same molecule, the “fold decrease in binding affinity” value with recombinant human M-CSF [4] is not below 7 fold. Moreover, in the assay with recombinant human M-CSF [10], the Kd was 5.9 nM, the koff worked out at 0.00118 s⁻¹ and the kon was found to be 201000 M⁻¹ s⁻¹.
